# From the supplement of paper PMC9112550, “Optimization of the antimicrobial peptide Bac7 by deep mutational scanning” (BMC Biology, 2022)
# Tested on: Escherichia coli TOP10
# Experiment: shrunken log2 fold change of peptide-encoding DNA abundance (4.5 h post-induction vs induction); higher = less antimicrobial activity (less host growth inhibition)
# Details: time post-induction: 4.5 h; library: site-saturation at positions 5, 18, 19, 20
# 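Note: peptides expressed intracellularly from a pBAD plasmid library in pooled LB shake-flask culture, induced with 0.3% L-arabinose, DNA abundance read by NGS, three biological replicates, DESeq2 with apeglm shrinkage.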
row,Sequence,shrunken log2 fold change
1,RRIRCRPPRLPRPRPRPQNDPRP,-0.505
2,RRIRCRPPRLPRPRPRPQNHPRP,-0.612
3,RRIRCRPPRLPRPRPRPQQPPRP,0.345
4,RRIRCRPPRLPRPRPRPQRVPRP,-0.158
5,RRIRCRPPRLPRPRPRPQSEPRP,-0.398
6,RRIRCRPPRLPRPRPRPQSMPRP,-0.419
7,RRIRCRPPRLPRPRPRPQSRPRP,-0.016
8,RRIRCRPPRLPRPRPRPQSSPRP,-0.103
9,RRIRCRPPRLPRPRPRPQSTPRP,-0.673
10,RRIRCRPPRLPRPRPRPQVAPRP,0.0924
11,RRIRCRPPRLPRPRPRPQWMPRP,-0.0314
12,RRIRCRPPRLPRPRPRPQWWPRP,0.433
13,RRIRCRPPRLPRPRPRPQYMPRP,-0.784
14,RRIRCRPPRLPRPRPRPRAVPRP,0.405
15,RRIRCRPPRLPRPRPRPRCDPRP,-0.047
16,RRIRCRPPRLPRPRPRPRCRPRP,0.285
17,RRIRCRPPRLPRPRPRPRDDPRP,0.274
18,RRIRCRPPRLPRPRPRPRDIPRP,-0.132
19,RRIRCRPPRLPRPRPRPRDVPRP,0.227
20,RRIRCRPPRLPRPRPRPRFRPRP,0.201
21,RRIRCRPPRLPRPRPRPRGYPRP,0.471
22,RRIRCRPPRLPRPRPRPRKEPRP,0.239
23,RRIRCRPPRLPRPRPRPRKKPRP,-0.125
24,RRIRCRPPRLPRPRPRPRLRPRP,0.925
25,RRIRCRPPRLPRPRPRPRMCPRP,0.337

row,Sequence,shrunken log2 fold change
1,RRIRCRPPRLPRPRPRPRMIPRP,0.306
2,RRIRCRPPRLPRPRPRPRPGPRP,0.733
3,RRIRCRPPRLPRPRPRPRQLPRP,0.0916
4,RRIRCRPPRLPRPRPRPRQSPRP,0.139
5,RRIRCRPPRLPRPRPRPRRNPRP,-0.0367
6,RRIRCRPPRLPRPRPRPRRRPRP,0.496
7,RRIRCRPPRLPRPRPRPRWIPRP,0.0454
8,RRIRCRPPRLPRPRPRPRWRPRP,0.442
9,RRIRCRPPRLPRPRPRPRYLPRP,-0.799
10,RRIRCRPPRLPRPRPRPSACPRP,-0.0897
11,RRIRCRPPRLPRPRPRPSCHPRP,-0.301
12,RRIRCRPPRLPRPRPRPSCQPRP,-0.375
13,RRIRCRPPRLPRPRPRPSELPRP,-0.107
14,RRIRCRPPRLPRPRPRPSEQPRP,-0.0681
15,RRIRCRPPRLPRPRPRPSFYPRP,-0.793
16,RRIRCRPPRLPRPRPRPSHRPRP,-0.508
17,RRIRCRPPRLPRPRPRPSIAPRP,-0.3
18,RRIRCRPPRLPRPRPRPSIYPRP,-0.713
19,RRIRCRPPRLPRPRPRPSKTPRP,-0.0722
20,RRIRCRPPRLPRPRPRPSMVPRP,-0.312
21,RRIRCRPPRLPRPRPRPSPIPRP,-0.32
22,RRIRCRPPRLPRPRPRPSQEPRP,0.0585
23,RRIRCRPPRLPRPRPRPSQWPRP,-0.337
24,RRIRCRPPRLPRPRPRPSRKPRP,-0.227
25,RRIRCRPPRLPRPRPRPSVNPRP,-0.348

row,Sequence,shrunken log2 fold change
1,RRIRCRPPRLPRPRPRPSVPPRP,-0.784
2,RRIRCRPPRLPRPRPRPSWAPRP,0.18
3,RRIRCRPPRLPRPRPRPSWFPRP,-0.147
4,RRIRCRPPRLPRPRPRPTACPRP,-0.0786
5,RRIRCRPPRLPRPRPRPTARPRP,0.105
6,RRIRCRPPRLPRPRPRPTCCPRP,-0.354
7,RRIRCRPPRLPRPRPRPTCFPRP,0.152
8,RRIRCRPPRLPRPRPRPTCLPRP,0.00222
9,RRIRCRPPRLPRPRPRPTEIPRP,-0.146
10,RRIRCRPPRLPRPRPRPTETPRP,-0.0479
11,RRIRCRPPRLPRPRPRPTFNPRP,-0.525
12,RRIRCRPPRLPRPRPRPTGHPRP,-0.113
13,RRIRCRPPRLPRPRPRPTGKPRP,0.355
14,RRIRCRPPRLPRPRPRPTHKPRP,0.298
15,RRIRCRPPRLPRPRPRPTLFPRP,0.196
16,RRIRCRPPRLPRPRPRPTLHPRP,-0.0488
17,RRIRCRPPRLPRPRPRPTLIPRP,1.65
18,RRIRCRPPRLPRPRPRPTMAPRP,-0.0611
19,RRIRCRPPRLPRPRPRPTTDPRP,-0.0121
20,RRIRCRPPRLPRPRPRPTTEPRP,0.419
21,RRIRCRPPRLPRPRPRPTTRPRP,0.176
22,RRIRCRPPRLPRPRPRPTVCPRP,-0.0924
23,RRIRCRPPRLPRPRPRPTVGPRP,0.224
24,RRIRCRPPRLPRPRPRPTWMPRP,-0.18
25,RRIRCRPPRLPRPRPRPTWYPRP,-0.28

row,Sequence,shrunken log2 fold change
1,RRIRCRPPRLPRPRPRPTYIPRP,-0.959
2,RRIRCRPPRLPRPRPRPVACPRP,-0.0888
3,RRIRCRPPRLPRPRPRPVAKPRP,0.275
4,RRIRCRPPRLPRPRPRPVCCPRP,0.0914
5,RRIRCRPPRLPRPRPRPVENPRP,0.112
6,RRIRCRPPRLPRPRPRPVFRPRP,-0.128
7,RRIRCRPPRLPRPRPRPVGWPRP,0.64
8,RRIRCRPPRLPRPRPRPVHKPRP,0.287
9,RRIRCRPPRLPRPRPRPVHSPRP,-0.107
10,RRIRCRPPRLPRPRPRPVHYPRP,-0.0961
11,RRIRCRPPRLPRPRPRPVILPRP,-0.799
12,RRIRCRPPRLPRPRPRPVLHPRP,-0.199
13,RRIRCRPPRLPRPRPRPVMVPRP,-0.211
14,RRIRCRPPRLPRPRPRPVNCPRP,-0.0215
15,RRIRCRPPRLPRPRPRPVPEPRP,0.316
16,RRIRCRPPRLPRPRPRPVPKPRP,0.339
17,RRIRCRPPRLPRPRPRPVQEPRP,0.286
18,RRIRCRPPRLPRPRPRPVQKPRP,-0.0201
19,RRIRCRPPRLPRPRPRPVRSPRP,0.549
20,RRIRCRPPRLPRPRPRPVSKPRP,-0.109
21,RRIRCRPPRLPRPRPRPVTHPRP,-0.29
22,RRIRCRPPRLPRPRPRPVTIPRP,-0.461
23,RRIRCRPPRLPRPRPRPVTPPRP,0.23
24,RRIRCRPPRLPRPRPRPVTRPRP,0.197
25,RRIRCRPPRLPRPRPRPVVFPRP,-0.123

row,Sequence,shrunken log2 fold change
1,RRIRCRPPRLPRPRPRPVWTPRP,0.0232
2,RRIRCRPPRLPRPRPRPWAFPRP,-0.0432
3,RRIRCRPPRLPRPRPRPWARPRP,-0.188
4,RRIRCRPPRLPRPRPRPWCVPRP,-0.0995
5,RRIRCRPPRLPRPRPRPWCYPRP,-0.831
6,RRIRCRPPRLPRPRPRPWDFPRP,-0.0326
7,RRIRCRPPRLPRPRPRPWEAPRP,0.0139
8,RRIRCRPPRLPRPRPRPWEIPRP,0.0501
9,RRIRCRPPRLPRPRPRPWFSPRP,-0.208
10,RRIRCRPPRLPRPRPRPWGEPRP,-0.0965
11,RRIRCRPPRLPRPRPRPWGQPRP,-0.00973
12,RRIRCRPPRLPRPRPRPWILPRP,-0.357
13,RRIRCRPPRLPRPRPRPWIMPRP,-0.275
14,RRIRCRPPRLPRPRPRPWIQPRP,-0.000687
15,RRIRCRPPRLPRPRPRPWKNPRP,0.0137
16,RRIRCRPPRLPRPRPRPWKRPRP,-0.0584
17,RRIRCRPPRLPRPRPRPWNQPRP,-0.516
18,RRIRCRPPRLPRPRPRPWPYPRP,-0.115
19,RRIRCRPPRLPRPRPRPWQDPRP,-0.154
20,RRIRCRPPRLPRPRPRPWQGPRP,-0.0944
21,RRIRCRPPRLPRPRPRPWQIPRP,-0.153
22,RRIRCRPPRLPRPRPRPWQVPRP,0.00859
23,RRIRCRPPRLPRPRPRPWRAPRP,0.0569
24,RRIRCRPPRLPRPRPRPWSRPRP,-0.391
25,RRIRCRPPRLPRPRPRPWSVPRP,-0.34

row,Sequence,shrunken log2 fold change
1,RRIRCRPPRLPRPRPRPWSYPRP,-0.441
2,RRIRCRPPRLPRPRPRPWTCPRP,-0.323
3,RRIRCRPPRLPRPRPRPWYDPRP,-0.0194
4,RRIRCRPPRLPRPRPRPWYQPRP,-0.272
5,RRIRCRPPRLPRPRPRPYADPRP,-0.037
6,RRIRCRPPRLPRPRPRPYAMPRP,-0.436
7,RRIRCRPPRLPRPRPRPYAYPRP,-0.208
8,RRIRCRPPRLPRPRPRPYCQPRP,-0.219
9,RRIRCRPPRLPRPRPRPYDHPRP,-0.797
10,RRIRCRPPRLPRPRPRPYDMPRP,-0.726
11,RRIRCRPPRLPRPRPRPYDYPRP,-0.27
12,RRIRCRPPRLPRPRPRPYENPRP,-0.145
13,RRIRCRPPRLPRPRPRPYFRPRP,-0.759
14,RRIRCRPPRLPRPRPRPYFVPRP,-1.13
15,RRIRCRPPRLPRPRPRPYGGPRP,-0.136
16,RRIRCRPPRLPRPRPRPYGMPRP,-0.0815
17,RRIRCRPPRLPRPRPRPYGSPRP,-0.517
18,RRIRCRPPRLPRPRPRPYHCPRP,-0.271
19,RRIRCRPPRLPRPRPRPYHRPRP,-0.77
20,RRIRCRPPRLPRPRPRPYHTPRP,-0.887
21,RRIRCRPPRLPRPRPRPYKVPRP,-1.05
22,RRIRCRPPRLPRPRPRPYMSPRP,-0.366
23,RRIRCRPPRLPRPRPRPYNCPRP,-0.195
24,RRIRCRPPRLPRPRPRPYPNPRP,-0.459
25,RRIRCRPPRLPRPRPRPYSIPRP,-0.608
